# Source: US20050069569A1
# Read-outs that look alike come from different tables or passages of the source.
# T1: PTHrP107-139 (human)
# T1 sequence: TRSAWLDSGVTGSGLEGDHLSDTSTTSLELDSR
# T2: PTHrP107-139 (human)
# T2 chain: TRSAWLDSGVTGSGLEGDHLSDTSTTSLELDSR
# B1: secPHEXE581V (inactive soluble human PHEX with Glu 581 replaced by Val) (protein)
# chain: QGLLSLQAKQEYCLKPECIEAAAAILSKVNLSVDPCDNFFRFACDGWISNNPIPEDMPSYGVYPWLRHNVDLKLKELLEKSISRRRDTEAIQKAKILYSSCMNEKAIEKADAKPLLHILRHSPFRWPVLESNIGPEGVWSERKFSLLQTLATFRGQYSNSVFIRLYVSPDDKASNEHILKLDQATLSLAVREDYLDNSTEAKSYRDALYKFMVDTAVLLGANSSRAEHDMKSVLRLEIKIAEIMIPHENRTSEAMYNKMNISELSAMIPQFDWLGYIKKVIDTRLYPHLKDISPSENVVVRVPQYFKDLFRILGSERKKTIANYLVWRMVYSRIPNLSRRFQYRWLEFSRVIQGTTTLLPQWDKCVNFIESALPYVVGKMFVDVYFQEDKKEMMEELVEGVRWAFIDMLEKENEWMDAGTKRKAKEKARAVLAKVGYPEFIMNDTHVNEDLKAIKFSEADYFGNVLQTRKYLAQSDFFWLRKAVPKTEWFTNPTTVNAFYSASTNQIRFPAGELQKPFFWGTEYPRSLSYGAIGVIVGHVFTHGFDNNGRKYDKNGNLDPWWSTESEEKFKEKTKCMINQYSNYYWKKAGLNVKGKRTLG
# Columns and labels:
# [1] = molecular target: secPHEX (soluble, secreted form of recombinant human PHEX) (human) (UniProt P78562); assay: cell-based or functional assay
# PTHrP107-139 (human) [2] = system: T1, PTHrP107-139 (human)
# PTHrP107-139 (human) [3] = molecular target: T2, PTHrP107-139 (human)
molecule,measurement,setting,value
"osteocalcin (human, extracted from bones, with Gla residues) (from UniProt P02818 52-100)",50% inhibition of secPHEX-mediated PTHrP107-139 hydrolysis (HPLC),[1],3.6 µM
same,inhibition of secPHEX activity at 5×10^-6 M osteocalcin,[1],75%
"secPHEX (soluble, secreted form of recombinant human PHEX)",degradation of PTHrP107-139 (HPLC),PTHrP107-139 (human) [2],approximately 75 to 80% degradation of the peptide was observed
B1,degradation of PTHrP107-139 (HPLC),PTHrP107-139 (human) [3],purified secPHEXE581V failed to degrade PTHrP107-139 under similar conditions
